According to paper PMC9259645, “Discovery of archaeal fusexins homologous to eukaryotic HAP2/GCS1 gamete fusion proteins” (Nature Communications, 2022):

Molecular target: the molecule itself
Experiment: crystal structure; X-ray, 2.3 Å, space group C2, three-fold non-crystallographic symmetry; crystals grown at 20 °C from purified Fsx1E (in 20 mM Na-HEPES pH 7.8, 2.5 M NaCl) mixed with 23% PEG 4000, 0.1 M Tris-HCl pH 8.5, 0.2 M CaCl2

B1: Fusexin1 ectodomain (Fsx1E), residues D25-S535 with T369C, crystallised construct (domain or fragment, UniProt C0HM55 25-535, looked up)
chain: DSITYNSGTSEFFDGDVFAIEVTADQSTDEIDIYLGASELSEKTDGEVNQDLSIEFTHQDSKLKYSTSTSDELRDIVTLTTYYEDGFDTEQDAIDAIKSDCYDLNQNGNGSGRYSRYYSVTSPVYDYEIYCFQKNEKLATPAYIDNPDEIFTAKAELQAGDKTIQSATLSNGDAGDGTVTDLGDSKISWNGNLDLGASEPENSRVIALYSNDFENGWRIGNKQSYEDYKTFIGGGDAYDLLIDWQDGTYTASEVEDELVNTDANQAVEEASSSTTDLVNAKVKDSSLDTGSFVYDTPELLSYPSFTVYVDAGENGYIEVTKPTGDPDIISTSSTEIKEGDEGTVCATVENVGDGEGEFSGRLSSCGEGFSIVDDQNTKNVGAGESVTYSFDVAFSSVSSESKEISGSCTFEVNGVESSDSTSVSVTGIQQSECNPGDQRREKNENDRWEIYTCQDNGLTYEYDVTCAEDEKAVAQGDNQFSCEKQDDDSGGGDNTGSDSGLFSNLFGGSGS
notes: Fusexin1 (Fsx1), archaeal fusexin from a metagenomic ORF of a hypersaline environment (IMG genome 3300000868, scaffold JGI12330J12834_1000008, ORF 8); extracellular region, residues D25-S535; Expressed from pLJ6 (derived from pHLsec3) behind the chicken Crypα signal peptide, in frame with a 3' 8xHis tag; T369C was introduced to help heavy atom derivatisation; Homotrimer in the crystal; also …
  stoichiometry N: 3
